Series [1] concerns the target T1, Pyruvate formate-lyase (PflB), full length, His-tagged (E. coli, UniProt P09373 1-760).
T1 construct: Pyruvate formate-lyase PflB, E. coli, UniProt P09373, full length; also called His-tagged PflB
T1 sequence (looked up): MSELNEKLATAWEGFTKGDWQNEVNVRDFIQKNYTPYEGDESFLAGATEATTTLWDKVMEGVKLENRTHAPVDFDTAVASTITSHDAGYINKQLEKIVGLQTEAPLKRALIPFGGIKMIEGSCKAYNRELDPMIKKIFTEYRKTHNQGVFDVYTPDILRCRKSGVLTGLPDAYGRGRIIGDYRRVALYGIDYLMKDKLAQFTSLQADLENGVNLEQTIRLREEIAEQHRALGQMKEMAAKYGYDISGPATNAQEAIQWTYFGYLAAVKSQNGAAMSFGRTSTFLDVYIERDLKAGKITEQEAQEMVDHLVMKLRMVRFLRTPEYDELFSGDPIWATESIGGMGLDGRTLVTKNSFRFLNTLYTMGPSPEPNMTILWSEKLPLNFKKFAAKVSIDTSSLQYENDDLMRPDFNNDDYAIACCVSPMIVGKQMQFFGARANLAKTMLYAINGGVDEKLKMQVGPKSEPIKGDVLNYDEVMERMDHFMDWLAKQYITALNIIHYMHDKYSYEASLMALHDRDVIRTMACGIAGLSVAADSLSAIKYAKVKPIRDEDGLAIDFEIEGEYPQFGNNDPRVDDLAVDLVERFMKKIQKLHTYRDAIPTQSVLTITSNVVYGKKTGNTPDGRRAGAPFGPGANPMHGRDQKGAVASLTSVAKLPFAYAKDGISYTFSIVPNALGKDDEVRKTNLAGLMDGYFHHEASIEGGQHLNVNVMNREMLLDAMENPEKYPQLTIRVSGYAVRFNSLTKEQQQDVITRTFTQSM
Nature of the series: cross-linking; XL-MS with DSBU: 10 uM PflB with equimolar FocA N-terminal peptide, 50- or 100-fold DSBU, 30 min, room temperature, 100 mM MOPS, 150 mM NaCl, pH 7.0; digest with trypsin and GluC, LC/MS/MS. As to conditions: both partners purified.

Series [2] concerns the molecule itself. Nature of the series: cryo-EM structure; purified StrepII-tagged FocA solubilised in DDM, 5 mg/mL, vitrified at 4 °C; single-particle reconstruction with C5 symmetry (wild type also C1).
In series [3] the target is T1, Pyruvate formate-lyase (PflB), full …. Nature of the series: cross-linking; XL-MS with sulfo-SDA: 10 uM FocA modified with 50-fold sulfo-SDA (100 mM MOPS, 150 mM NaCl, DDM, pH 7.0), then mixed with 10 uM PflB and UV-irradiated (365 nm); digest with trypsin and GluC, LC/MS/MS. As to conditions: both partners purified.

The source of these data is PMC12559229, “Conserved hydrophilic checkpoints tune FocA-mediated formate:H^+ symport” (Nature Communications, 2025).

Ends that are not written are not given here. GS linker = not defined here

B1: FocA N-terminal peptide (residues 1-35 of FocA, GS linker, Strep-II tag) (peptide)
peptide: MKADNPFDLLLPAAMAKVAEEAGVYKATKHPLKTF-{GS linker-Strep‑II tag}
modifications: reading uncertain
notes: FocA, E. coli, residues 1-35 (the N-terminus of FocA); Whole peptide as printed, 45 residues: [residues removed]; also called N-terminal FocA peptide (1-45); N-terminal peptide of FocA; source: synthetic peptide (Thermo Fisher); not shown: StrepII (after a GS linker), C-terminal, kept
Take B1: the binding result in series [1] is on record as “binds”.

B2: FocA (formate channel), wild type, full length, C-terminal StrepII-tag (natural protein, E. coli, UniProt P0AC23 1-285, looked up)
chain: MKADNPFDLLLPAAMAKVAEEAGVYKATKHPLKTFYLAITAGVFISIAFVFYITATTGTGTMPFGMAKLVGGICFSLGLILCVVCGADLFTSTVLIVVAKASGRITWGQLAKNWLNVYFGNLVGALLFVLLMWLSGEYMTANGQWGLNVLQTADHKVHHTFIEAVCLGILANLMVCLAVWMSYSGRSLMDKAFIMVLPVAMFVASGFEHSIANMFMIPMGIVIRDFASPEFWTAVGSAPENFSHLTVMNFITDNLIPVTIGNIIGGGLLVGLTYWVIYLRENDHH
notes: FocA, formate channel of the formate-nitrite transporter family, E. coli, UniProt P0AC23, full length; Pentamer in the cryo-EM structure; In the sulfo-SDA experiment FocA was first modified on amines with sulfo-SDA; also called native FocA; wild-type FocA; source: E. coli BL21(DE3) transformed with pfocA3; solubilised from membranes with DDM, purified (Strep-Tactin Sepharose); not shown: StrepII, …
As a reminder, the stoichiometry N is a count of units in the complex or per binding partner. As for B2, the “stoichiometry N” value in series [2] amounted to 5. In series [3], the binding result is “binds”.

B3: FocA-H209N variant, C-terminal StrepII-tag (natural protein, E. coli, UniProt P0AC23 1-285, looked up)
chain: MKADNPFDLLLPAAMAKVAEEAGVYKATKHPLKTFYLAITAGVFISIAFVFYITATTGTGTMPFGMAKLVGGICFSLGLILCVVCGADLFTSTVLIVVAKASGRITWGQLAKNWLNVYFGNLVGALLFVLLMWLSGEYMTANGQWGLNVLQTADHKVHHTFIEAVCLGILANLMVCLAVWMSYSGRSLMDKAFIMVLPVAMFVASGFENSIANMFMIPMGIVIRDFASPEFWTAVGSAPENFSHLTVMNFITDNLIPVTIGNIIGGGLLVGLTYWVIYLRENDHH
notes: FocA, E. coli, UniProt P0AC23, with the exchange H209N; made by mutagenesis of pfocA3, which carries the native focA gene; Reconstructed with C5 symmetry; also called H209N-FocA; source: E. coli BL21(DE3) transformed with pfocAH209N; solubilised from membranes with DDM, purified (Strep-Tactin Sepharose); not shown: StrepII, C-terminal, kept
With B3, the binding result in series [2] is given as “binds”.
